# Assay results from patent publication US20040248240A1.
# Where two headings read alike, the source gives them in different places.
# B1: human voltage-gated sodium channel β3 sub-unit (protein)
# chain: FPVCVEVPSETEAVQGNPMKLRCISCMKREEVEATTVVEWFYRPEGGKDFLIYEYRNGHQEVESPFQGRLQWNGSKDLQDVSITVLNVTLNDSGLYTCNVSREFEFEAHRPFVKTTRLIPLRVTEEAGEDFTSVVSEIMMYILLVFLTLWLLIEMIYCYRKVSKAEEAAQENASDYLAIPSENKENSAVPVEE
# B2: rat voltage-gated sodium channel β3 sub-unit (protein)
# chain: VCVEVPSETEAVQGNPMKLRCISCMKREEVEATTVVEWFYRPEGGKDFLIYEYRNGHQEVESPFQGRLQWNGSKDLQDVSITVLNVTLNDSGLYTCNVSREFEFEAHRPFVKTTRLIPLRVTEEAGEDFTSVVSEIMMYILLVFLTLWLFIEMIYCYRKVSKAEEAAQENASDYLAIPSENKENSVVPVEE
# Tests used:
# Assay in all cases: cell-based or functional assay
# [1] = biological target: rat brain type IIA α sub-unit of the voltage-gated sodium channel (rat) (UniProt P04775)
# UniProt P04775, sequence (P04775 whole entry): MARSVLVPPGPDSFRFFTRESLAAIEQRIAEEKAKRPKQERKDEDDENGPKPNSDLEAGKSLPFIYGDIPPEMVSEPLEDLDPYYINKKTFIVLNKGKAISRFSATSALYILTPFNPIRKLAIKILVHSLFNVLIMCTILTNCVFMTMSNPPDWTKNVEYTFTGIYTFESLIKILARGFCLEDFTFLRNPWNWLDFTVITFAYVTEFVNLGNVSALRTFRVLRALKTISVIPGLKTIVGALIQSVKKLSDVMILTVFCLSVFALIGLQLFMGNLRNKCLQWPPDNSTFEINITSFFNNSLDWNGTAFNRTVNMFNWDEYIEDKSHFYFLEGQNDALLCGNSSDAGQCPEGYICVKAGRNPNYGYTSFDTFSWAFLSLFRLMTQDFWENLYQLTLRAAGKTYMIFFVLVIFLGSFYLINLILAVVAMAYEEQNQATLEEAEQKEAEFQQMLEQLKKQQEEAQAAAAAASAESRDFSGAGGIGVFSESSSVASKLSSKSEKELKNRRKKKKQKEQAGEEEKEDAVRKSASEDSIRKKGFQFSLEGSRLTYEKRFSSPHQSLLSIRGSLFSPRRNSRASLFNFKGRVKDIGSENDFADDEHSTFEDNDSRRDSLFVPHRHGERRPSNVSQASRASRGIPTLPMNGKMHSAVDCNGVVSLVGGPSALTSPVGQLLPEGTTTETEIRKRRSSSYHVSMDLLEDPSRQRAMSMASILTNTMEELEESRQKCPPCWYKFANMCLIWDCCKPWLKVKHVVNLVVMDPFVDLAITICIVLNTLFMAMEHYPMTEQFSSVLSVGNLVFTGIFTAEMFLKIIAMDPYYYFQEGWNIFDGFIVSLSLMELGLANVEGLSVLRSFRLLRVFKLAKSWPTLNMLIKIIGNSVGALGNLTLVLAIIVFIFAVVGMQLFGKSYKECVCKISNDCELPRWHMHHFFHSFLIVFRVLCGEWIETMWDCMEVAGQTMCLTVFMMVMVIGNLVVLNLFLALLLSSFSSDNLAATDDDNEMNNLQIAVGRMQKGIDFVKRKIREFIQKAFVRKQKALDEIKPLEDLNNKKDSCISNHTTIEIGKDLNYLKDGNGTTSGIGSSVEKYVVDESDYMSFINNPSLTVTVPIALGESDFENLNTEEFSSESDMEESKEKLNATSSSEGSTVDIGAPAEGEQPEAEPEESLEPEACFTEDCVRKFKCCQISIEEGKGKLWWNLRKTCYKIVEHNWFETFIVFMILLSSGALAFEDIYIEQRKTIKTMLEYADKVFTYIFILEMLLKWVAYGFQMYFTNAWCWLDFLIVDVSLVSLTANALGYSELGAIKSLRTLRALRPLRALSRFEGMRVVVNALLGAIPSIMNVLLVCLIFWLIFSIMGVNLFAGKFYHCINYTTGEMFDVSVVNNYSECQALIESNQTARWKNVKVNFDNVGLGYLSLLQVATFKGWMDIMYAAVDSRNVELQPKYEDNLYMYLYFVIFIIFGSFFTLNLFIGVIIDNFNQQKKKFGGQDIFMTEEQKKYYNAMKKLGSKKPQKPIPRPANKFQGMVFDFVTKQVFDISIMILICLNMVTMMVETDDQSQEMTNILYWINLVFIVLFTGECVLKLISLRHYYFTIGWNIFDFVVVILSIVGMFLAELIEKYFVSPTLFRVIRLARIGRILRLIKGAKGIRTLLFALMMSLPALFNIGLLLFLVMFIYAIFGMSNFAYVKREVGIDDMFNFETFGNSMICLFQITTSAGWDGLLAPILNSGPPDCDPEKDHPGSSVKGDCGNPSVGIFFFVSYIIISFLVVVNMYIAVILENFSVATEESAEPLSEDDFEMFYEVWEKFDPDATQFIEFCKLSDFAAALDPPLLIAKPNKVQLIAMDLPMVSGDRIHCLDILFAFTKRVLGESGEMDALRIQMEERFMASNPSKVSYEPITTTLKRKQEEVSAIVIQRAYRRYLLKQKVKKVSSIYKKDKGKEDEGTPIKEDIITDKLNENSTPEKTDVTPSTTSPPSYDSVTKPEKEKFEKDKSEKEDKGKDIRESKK
# [2] = biological target: rat brain type IIA α sub-unit of the voltage-gated sodium channel (rat) (UniProt P04775); remark: listed apart in the source
# [3] = biological target: rat brain type IIA α sub-unit of the voltage-gated sodium channel (rat) (UniProt P04775); remark: listed apart in the source
molecule,measurement,setting,value
rat voltage-gated sodium channel β1 sub-unit (from UniProt Q00954 19-218),"Inactivation timecourse, Percentage in fast mode",[1],95%
same,"Inactivation timecourse, time constant 1",[1],1.4 ms
same,"Inactivation timecourse, time constant 2",[1],24.7 ms
same,"Recovery from inactivation, Percentage in fast mode",[1],84%
same,"Recovery from inactivation, time constant 1",[1],2 ms
same,"Recovery from inactivation, time constant 2",[1],148 ms
same,"Voltage-dependence of inactivation, V½ (mV)",[1],-49.1 mV
same,"Voltage-dependence of inactivation, k (mV)",[1],5.9 mV
same,"inactivation time constant 1 at -10 mV (two-electrode voltage clamp, oocytes)",[1],1.3 ms
same,"inactivation time constant 2 at -10 mV (two-electrode voltage clamp, oocytes)",[1],22.7 ms
B1,inactivation time constant 1,[2],1 ms
same,inactivation time constant 2,[2],9.1 ms
B2,"Recovery from inactivation, time constant 1",[3],1.9 ms
same,"Recovery from inactivation, time constant 2",[3],198 ms
same,"Inactivation timecourse, Percentage in fast mode",[2],85%
same,"Inactivation timecourse, time constant 1",[2],1.5 ms
same,"Inactivation timecourse, time constant 2",[2],24.7 ms
same,"Recovery from inactivation, Percentage in fast mode",[2],73%
same,"Recovery from inactivation, time constant 1",[2],4.1 ms
same,"Recovery from inactivation, time constant 2",[2],170 ms
same,"Voltage-dependence of inactivation, V½ (mV)",[2],-49.3 mV
same,"Voltage-dependence of inactivation, k (mV)",[2],6.1 mV
same,"inactivation time constant 1 at -10 mV (two-electrode voltage clamp, oocytes)",[2],1 ms
same,"inactivation time constant 2 at -10 mV (two-electrode voltage clamp, oocytes)",[2],23.8 ms
same,"steady-state inactivation, V1/2 (midpoint)",[2],-49.4 mV
